The numbers were not newly measured in article PMC9331682, which cites them from elsewhere.

The series concerns the target PD-1 (Homo sapiens) (UniProt Q15116).

PD-1 (Homo sapiens), sequence (Q15116 25-170): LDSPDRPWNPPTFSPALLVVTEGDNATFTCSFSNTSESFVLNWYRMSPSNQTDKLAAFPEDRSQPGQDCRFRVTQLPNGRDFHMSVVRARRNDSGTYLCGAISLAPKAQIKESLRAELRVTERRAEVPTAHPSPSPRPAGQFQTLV

On to Dostarlimab, for which the Kd (commonly the equilibrium constant for the complex coming apart) was 0.3 nM.
